Results reported in PMC7156710, “The Sox2 transcription factor binds RNA”.
Where “and” joins values, the source holds several entries; their conditions need not be identical. Identical values can stand only once.

What was measured:
[1] = target: Sox2-HMG (thrombin cleaved) (Homo sapiens, UniProt P48431 38-121); assay: fluorescence anisotropy; 10 mM Tris-HEPES pH 7.5, 8% Ficoll, 0.05% NP-40, 135 mM KCl, 15 mM NaCl, 1 mM DTT, 0.1 mg/mL BSA; 2 nM DNA or 3 nM RNA; conditions: protein: recombinant, tags: N-terminal GSHM left after thrombin cleavage of His6
Sox2 full length = Sox2 full length (Homo sapiens, UniProt P48431 1-317); assay: as above; conditions: protein: recombinant, tags: N-terminal His6 and thrombin site (retained)
[2] = target: Sox2-HMG (HRV 3C cleaved) (Homo sapiens, UniProt P48431 38-121); assay: as above; conditions: protein: recombinant; tags: N-terminal GPHM left after removal of His8-MBP; label: 3'-FAM; hairpin
Sox2-HMG [3] = target: T1, Sox2-HMG (Homo sapiens, UniProt P48431 40-123); assay: fluorescence anisotropy; 10 mM Tris-HEPES pH 7.5, 135 mM KCl, 15 mM NaCl, 1 mM DTT, 8% Ficoll, 0.05% NP-40, 0.1 mg/mL BSA; 2 nM DNA or 3 nM RNA; room temperature (stated for competition); conditions: protein: recombinant, tags: N-terminal His6, thrombin cleaved
Sox2-HMG [4] = target: T1, Sox2-HMG; assay: EMSA; 10 mM Tris-HEPES pH 7.5, 135 mM KCl, 15 mM NaCl, 1 mM DTT, 8% Ficoll, 0.05% NP-40, 0.1 mg/mL BSA; 2 nM DNA or 3 nM RNA; room temperature (stated for competition); conditions: protein: recombinant; tags: N-terminal His6, thrombin cleaved; label: 3' fluorescein; hairpin
Sox2-HMG [5] = target: T1, Sox2-HMG; assay: competition; unlabeled RNA vs labeled FGF4 DNA; 10 mM Tris-HEPES pH 7.5, 135 mM KCl, 15 mM NaCl, 1 mM DTT, 8% Ficoll, 0.05% NP-40, 0.1 mg/mL BSA; 2 nM DNA or 3 nM RNA; room temperature (stated for competition); conditions: protein: recombinant; tags: N-terminal His6, thrombin cleaved; label: 3' fluorescein; hairpin
[6] = label: FAM, only (+) strand given
[7] = label: 3' fluorescein, unstructured

T1 sequence (P48431 40-123): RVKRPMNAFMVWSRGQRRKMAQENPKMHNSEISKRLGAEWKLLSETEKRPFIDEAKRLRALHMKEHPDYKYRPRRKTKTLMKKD
Sequence of Sox2-HMG (HRV 3C cleaved) (P48431 other isoform, or with tags, fused parts or gaps): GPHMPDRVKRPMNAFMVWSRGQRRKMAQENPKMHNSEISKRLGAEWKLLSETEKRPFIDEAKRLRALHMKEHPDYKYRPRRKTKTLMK
Sequence of Sox2-HMG (thrombin cleaved) (P48431 other isoform, or with tags, fused parts or gaps): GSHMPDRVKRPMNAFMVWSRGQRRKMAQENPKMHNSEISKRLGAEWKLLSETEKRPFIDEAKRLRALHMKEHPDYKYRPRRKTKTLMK
Sequence of Sox2 full length (P48431 whole entry): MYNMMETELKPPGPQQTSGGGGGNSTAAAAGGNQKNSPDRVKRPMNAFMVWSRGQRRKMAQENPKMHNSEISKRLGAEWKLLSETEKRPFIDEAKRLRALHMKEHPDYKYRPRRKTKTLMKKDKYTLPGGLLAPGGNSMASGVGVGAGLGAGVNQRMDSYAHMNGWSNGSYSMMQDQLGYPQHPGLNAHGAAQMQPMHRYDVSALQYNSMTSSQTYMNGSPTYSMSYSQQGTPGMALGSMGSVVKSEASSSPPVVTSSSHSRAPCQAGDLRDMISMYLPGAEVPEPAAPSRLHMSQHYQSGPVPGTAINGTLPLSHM

B1: DPPA4 enhancer dsDNA (dsDNA)
DNA 1: CGCGCATTTGTACCCGGGT
DNA 2: ACCCGGGTACAAATGCGCG
Work on B1 yielded a Kd [1, 6] of 3.4 ± 0.954 nM.

B2: ES2 89-178 (structured_RNA)
RNA: GGCUGGAACAUCUGUUUCUAGCUUGUUGUUCCUCUUGGCUGCUUUUCAAUUGGAUUUCCUCGAGCAGGUCCCAGGCUUGUCACUGCAGCCA
With B2 the Kd ([1]; label: 3' fluorescein) was 13.4 ± 1.63 nM.

B3: FGF4 enhancer dsDNA (dsDNA)
DNA 1: CGCGCCTTTGTTCCCGGGT
DNA 2: ACCCGGGAACAAAGGCGCG
With B3 the Kd (Sox2 full length; [6]) was 2.1 ± 0.599 nM and the Kd [1, 6] was 0.937 nM and 0.85 nM.

Binder GGUCCAUGCGGGCGAAAGUCUGUAUGGACC (structured_RNA) [13 bp hairpin] has a Kd [2] of 83 ± 9.8 nM.

B4: tRNALeu(CAG) (structured_RNA)
RNA: GCGAAGGUGGCGGAAUUGGUAGACGCGCUAGCUUCAGGUGUUAGUGUCCUUACGGACGUGGGGGUUCAAGUCCCCCCCCUCGCACCAGGAUCU
Work on B4 yielded a Kd ([1]; label: 3' fluorescein) of 26.5 ± 5.62 nM.

GGUCGCCGUGGCCACUUCGAAAGGGGUGGAAAGGGCGACC (structured_RNA) [Loop A] was tested, and the Kd ([1]; label: 3' fluorescein, hairpin) was 11.3 ± 2.5 nM.

B5: Loop B fully paired RNA duplex (dsRNA)
RNA 1: GGUCUUAUCAUGCGGGC
RNA 2: GCCCGCAUGAUAAGACC
Binder B5 has a Kd (Sox2-HMG [3]; label: FAM on one strand, blunt) of 54 ± 9 nM.

B6: xpt-pbuX riboswitch (structured_RNA)
RNA: GGACAUAUAAUCGCGUGGAUAUGGCACGCAAGUUUCUACCGGGCACCGUAAAUGUCCGACUAUGUCC
Work on B6 yielded a Kd ([1]; label: 3' fluorescein) of 25.4 ± 2.54 nM.

GGUCUUAUCAUGCGGGCGAAAGUCUGUAUGAUGGGACC (structured_RNA) [Loop B, Fully Paired] showed a Kd (Sox2-HMG [3]; label: 3' fluorescein, hairpin) of 15 ± 2 nM, a Kd ([1]; label: 3' fluorescein, hairpin) of 14.7 ± 1.68 nM and a Kd (Sox2-HMG [4]) of 20 ± 4 nM.

With GGUCUUAUCAUGCGCGAAAGUGUACCUCUGGGACC (structured_RNA) [Loop B, P2(5bp)] the Kd ([1]; label: 3' fluorescein, hairpin) was 9.6 ± 1.32 nM.

B7: SOX2 enhancer dsDNA (dsDNA)
DNA 1: CGCGCCATTGTGCCCGGGT
DNA 2: ACCCGGGCACAATGGCGCG
With B7 the Kd [1, 6] was 0.867 ± 0.219 nM.

B8: ES2 179-267 (structured_RNA)
RNA: GGGUCUGUUAACCAUCACCACUGGUUCUACAUUAAGUAGGAGGUUCAGGGCUAAGCUAAUAACUCGCCUGCCUUUCUGACUGAUCACAG
B8 showed a Kd ([1]; label: 3' fluorescein) of 11.5 ± 2.68 nM.

Binder GGUCCAUGCGAAAGUAUGGACC (structured_RNA) [9 bp hairpin] has a Kd [2] of 54 ± 6.94 nM.

For GGUGGGCUCCUUUGGGAGGGUGCUCUUCUUUGUCUACC (structured_RNA) [Loop C], the Kd ([1]; label: 3' fluorescein, hairpin) was 11.2 ± 1.57 nM.

With GGAUCAUGCGGGCGAAAGUCUGUACCUCUCC (structured_RNA) [Loop B, P1(3bp)] the Kd ([1]; label: 3' fluorescein, hairpin) was 10.3 ± 1.94 nM.

B9: ES2 1-178 (structured_RNA)
RNA: GGAAGAAGUGAAAUCACUAUAUUUAGAAACGAAUGCUACCAUCCCACCCCAACUACAUGUUCAGGUUAAAUGCGUGCACAUCCUGGUAGCUGGAACAUCUGUUUCUAGCUUGUUGUUCCUCUUGGCUGCUUUUCAAUUGGAUUUCCUCGAGCAGGUCCCAGGCUUGUCACUGCAGCCA
Work on B9 yielded a Kd ([1]; label: 3' fluorescein) of 29.7 ± 4.07 nM.

GGUCUUAUCAUGCGAAAGUACCUCUGGGACC (structured_RNA) [Loop B, P2(3bp)] was tested, and the Kd ([1]; label: 3' fluorescein, hairpin) was 11.4 ± 1.46 nM.

B10: CCND1_SM6 dsDNA (dsDNA)
DNA 1: CGCGCACTACAGCCCGGGT
DNA 2: ACCCGGGCTGTAGTGCGCG
B10 gave a Kd [1, 6] of 23.8 ± 5.4 nM.

GGUCCGAAAGGACC (structured_RNA) [5 bp hairpin] was tested, and the Kd [2] was 71 ± 12.1 nM.

In the case of GGUAUCAUGCGGAAACGCACCUCUACC (structured_RNA) [Loop B, P1/2(3bp)], the Kd ([1]; label: 3' fluorescein, hairpin) is reported as 10.6 ± 1.82 nM.

B11: CCND1_SM1 dsDNA (dsDNA)
DNA 1: CGCGCCCTCTTCCCCGGGT
DNA 2: ACCCGGGGAAGAGGGCGCG
In the case of B11, the Kd [1, 6] is reported as 9.77 ± 1.07 nM.

B12: Loop B fully paired RNA duplex (Fig. 3g) (dsRNA)
RNA 1: GGUCUUAUCAUGCGGGC
RNA 2: GCCCGCAUGAUAAGACC
B12 was tested, and the Kd ([1]; label: FAM on one strand) was 35.1 ± 2.81 nM.

B13: ES2 179-354 (structured_RNA)
RNA: GGGUCUGUUAACCAUCACCACUGGUUCUACAUUAAGUAGGAGGUUCAGGGCUAAGCUAAUAACUCGCCUGCCUUUCUGACUGAUCACAGUGAUGUUCGCCGUGGCCACUUAUCAUGCGGGCUCCUUUGGGAGGGUGCUCUUCUUUGUCUGUACCUCUGGGUGGAAAGGGCGAAUUC
B13 was tested, and the Kd ([1]; label: 3' fluorescein) was 11.2 ± 0.792 nM.

In the case of GGUCUUAAGGUGCGGGCGAAAGUCUGUACCUCUGGGACC (structured_RNA) [Loop B, Bulge(0+1)], the Kd ([1]; label: 3' fluorescein, hairpin) is reported as 10 ± 1.66 nM and the Ki (Sox2-HMG [5]) is reported as 13 ± 4 nM.

With GGUCUUAUCGUGCGGGCGAAAGUCUGUACCUCUGGGACC (structured_RNA) [Loop B, Bulge(2+3)] the Kd ([1]; label: 3' fluorescein, hairpin) was 13.6 ± 2.46 nM.

Work on GGUCUUAUGGUGCGGGCGAAAGUCUGUACCUCUGGGACC (structured_RNA) [Loop B, Bulge(1+2)] yielded a Kd ([1]; label: 3' fluorescein, hairpin) of 12 ± 1.98 nM.

GGUCUUAUCAUGCGGGCGAAAGUCUGUACCUCUGGGACC (structured_RNA) [Loop B] was tested, and the Kd ([1]; label: 3' fluorescein, hairpin with internal loop) was 10 ± 1.68 nM.

For AUACAACAUACAACAUACAACAUACAACAUACAACA (ssRNA) [env8 ssRNA], the Kd (Sox2 full length; [7]) was 512 ± 76.5 nM and the Kd [1, 7] was 502 ± 123 nM.

B14: ES2 1-89 (structured_RNA)
RNA: GGAAGAAGUGAAAUCACUAUAUUUAGAAACGAAUGCUACCAUCCCACCCCAACUACAUGUUCAGGUUAAAUGCGUGCACAUCCUGGUAG
B14 was tested, and the Kd ([1]; label: 3' fluorescein) was 22.2 ± 3.26 nM.

B15: ES2 89-267 (structured_RNA)
RNA: GGCUGGAACAUCUGUUUCUAGCUUGUUGUUCCUCUUGGCUGCUUUUCAAUUGGAUUUCCUCGAGCAGGUCCCAGGCUUGUCACUGCAGCCAGGGUCUGUUAACCAUCACCACUGGUUCUACAUUAAGUAGGAGGUUCAGGGCUAAGCUAAUAACUCGCCUGCCUUUCUGACUGAUCACAG
B15 showed a Kd ([1]; label: 3' fluorescein) of 32.4 ± 6.56 nM.

B16: env4 Cbl riboswitch (structured_RNA)
RNA: GGUGUUAAAAGCAUAGUGGGAAAGUGACGUGUAAUUCGUCCACAUUACUUGAUGCGGUUAUAGUCCCAAUGCCACCUAACACAAAGUACGAGCAAGGAGACUC
With B16 the Kd ([1]; label: 3' fluorescein) was 32.4 ± 1.08 nM.

GGUUAUCAUGCGGGCGAAAGUCUGUACCUCUGGCC (structured_RNA) [Loop B, P1(5bp)] gave a Kd (Sox2-HMG [3]; label: 3' fluorescein, hairpin) of 12.8 ± 1.8 nM and a Kd ([1]; label: 3' fluorescein, hairpin) of 12.8 ± 1.84 nM.

B17: ES2 267-354 (structured_RNA)
RNA: GGUGAUGUUCGCCGUGGCCACUUAUCAUGCGGGCUCCUUUGGGAGGGUGCUCUUCUUUGUCUGUACCUCUGGGUGGAAAGGGCGAAUUC
For B17, the Kd ([1]; label: 3' fluorescein) was 10.3 ± 2.03 nM.
